Source: patent publication US11932908B2, “Compositions and methods for diagnosis and treatment of epilepsy” (THE REGENTS OF THE UNIVERSITY OF CALIFORNIA, priority 2004, dated 2024)
Entries after “also recorded” stand apart in the source; their conditions may differ. Where two headings read alike, the source gives them in different places.

What was measured:
C-terminus of Cav2.2 = assay: Co-immunoprecipitation assay in HEK cells, Cav2.2 C-terminus; format: binding; conditions: tagged proteins co-expressed in HEK cells
Method: (§1) Immunoprecipitation. HEK cells co-transfected with expression constructs were collected 20 hrs post transfection. The cells were washed in PBS, scraped and homogenized in the lysis buffer (10 mM Tris pH 8.0, 150 mM NaCl, 5 mM EDTA) supplemented with protease inhibitors (Complete; Roche). Cellular debris was removed by centrifugation at 12,000×g for 10 min at 4° C. The supernatants were precleared with protein G-Sepharose (Amersham Pharmacia Biotech) for 2 h at 4° C. and then incubated with monoclonal anti-Flag M2-Agarose beads (Sigma) or anti-Myc antibody (Santa Cruz) for 12 hrs at 4° C. Protein G-Sepharose was used for precipitation with anti-Myc antibody. The beads were washed with lysis buffer five times and then eluted either with Flag peptide or SDS sample buffer for immunoblot analyses.
(§2) Western blot analysis. Confluent HEK cells transiently transfected with expression constructs were placed on ice and washed twice with ice-cold PBS. Cells were scraped from the dishes and homogenized in a hypotonic buffer (0.25M sucrose, 10 mM Tris-HCl, 10 mM NaCl, 1 mM EDTA, pH7.5) supplemented with mixture of protease inhibitors (Complete; Roche). The lysate was centrifuged at 3,300 g for 5 min. to remove nuclei and the supernatant was used as total cytosolic protein. […]

[1] = test system: mouse hippocampal primary culture neurons
Method: Mouse hippocampal neurons primary culture. Hippocampal neurons were isolated from embryonic day 16 mice and plated at 1-2×10^5 cells per well in 24 well plate containing glass coverslips coated with poly-1-lysine and grown in serum-free NEUROBASAL™ media supplemented with B27, 0.5 mM L-glutamine (Invitrogen).
Transfection and immunostaining of mouse hippocampal neurons. […] Cultures were fixed with 4% paraformaldehyde in PBS 16 and 48 hours after transfection, permeabilized with 0.3% Triton X-100, blocked in 3% normal goat serum in PBS, and treated with mouse monoclonal anti-MAP-2 antibody (1:500; Sigma) and Alexa fluor 594 goat anti-mouse IgG antibody (1:1000; Molecular Probes).
TUNEL assay. […] Forty-eight hours after transfection, neuronal apoptosis was detected using DeadEndTM Fluorometric TUNEL System (Promega). Nuclei were visualized with Hoescht 33342 (Molecular Probes). These cells were also stained with anti-Myc antibody (1:200; Cell Signaling) and Alexa fluor 594 goat anti-rabbit IgG antibody (1:1000). All experiments were carried out in duplicate wells and at least repeated three times. Neuron cells were observed on a confocal microscope (OLYMPUS FLUOVIEW) following 48 hours post transfection.
Cell death analyses with EFHC1 mutants. […] Surviving cell numbers were scored by counting GFP fluorescent-positive cells that attached to dishes. At each counting, detached cells (dead cells) were carefully removed by changing culture medium. Morphologies of cells (cell shape, length and number of neurites, shrinkage, etc.) were not considered for the counting. Surviving cell numbers were scored at 24, 36, and 48 hours after transfection. Analyses were repeated twice by using two independently prepared expression construct DNAs. In total, neurons in seven wells of 24 well plates were counted for each transfection and time point. Experiments were performed in a blinded fashion.

R-type VDCC (Cav2.3) = target: T1, R-type VDCC (Cav2.3) (Oryctolagus cuniculus, UniProt Q02343); assay: Patch-clamp analyses of BHK cells stably expressing Cav2.3 transfected with EFHC1 constructs; format: cell-based; conditions: whole cell patch-clamp, 24-48 hr after transfection
T1 construct: expressed in transfected cells; host or cells: BHK (BII-104-2) cells
Method: Electrophysiological analysis. A baby hamster kidney (BHK) cell line BHK (BII-104-2) stably transfected with the ociE (BII), α2/δ and β1a subunits, were cultured in DMEM medium containing 10% fetal bovine serum (FBS), 30 U/mL penicillin and 30 μg/mL streptomycin. To transiently express wild type or mutant EFHC1, BHK (BII-104-2) cells were transfected with the pEGFP-C2 plasmids (Clonetech) containing EGFP fused with cDNA for EFHC1 or its mutants using SuperFect Transfection Reagent (QIAGEN). For control experiments, EGFP was transiently expressed by transfecting BHK (BII-104-2) with the same amount of pEGFP without the EFHC1 inserts. Cells were trypsinized, diluted with the DMEM medium, and plated onto glass coverslips 18 hrs after transfection. Ca^2+ currents were recorded 24-48 hr after transfection from GFP-positive cells. Currents from BHK (BII-104-2) cells were recorded at room temperature (22-25° C.) using patch-clamp techniques of whole cell mode with an EPC-9 amplifier (HEKA, Germany). Patch pipettes were made from borosilicate glass capillaries (1.5 mm outer diameter and 0.87 mm inner diameter; Hilgenberg) by using a model P-97 Flaming-Brown micropipette puller (Sutter Instrument Co., CA). Pipette resistance ranged from 2 to 3 MΩ when filled with the pipette solutions described below. The series resistance was electronically compensated to >70% and both the leakage and the remaining capacitance were subtracted by −P/6 method. Currents were sampled at 100 kHz in activation kinetics, otherwise sampled at 50 kHz and filtered at 10 kHz. Calcium currents were recorded in an external solution that contained (in mM): 3 CaCl2, 148 tetraethylammonium chloride (TEA-C1), 10 glucose, and 10 HEPES, pH adjusted to 7.4 with Tris-OH. The pipette solution contained (in mM): 85 Cs-aspartate, 40 CsCl, 4 MgCl2, 5 EGTA, 2 ATP2Na, 5 HEPES, and 8 creatine-phosphate, pH adjusted to 7.4 with CsOH. To determine voltage-dependence of activation, amplitude of tail currents at −50 mV after 5 ms test pulse (−40 to 90 mV) was normalized to the maximal tail current amplitude. […]

Bid = assay: Co-expression with DsRed-Bid vector (marker for caspase activation); format: cell-based; conditions: fetal mouse primary hippocampal neuron
Description: Clarifying the exact stage or stages of apoptosis thru which myoclonin/EFHC1 acts and by what stage JME mutations reverse apoptosis is important for development of a curative treatment. Typically, apoptotic stimuli, through a Bcl-2 family mediated checkpoint, cause redistribution of cytochrome-c from mitochondria to cytosol. Cytosolic cytochrome-c binds to APAF-1 in the presence of dATP or ATP, result in recruitment and activation of caspase 9 and subsequent cleavage of caspase 3. Caspase 3 ultimately produces extensive DNA fragmentation. […] After establishing Bid activation, the next step is to establish that myoclonin acting through Bid, cause mitochondrial cytochrome C release and then caspase 3 activation. After establishing this step, studies will ask whether myoclonin also acts thru the AIF and a caspase 3 independent cell death mechanisms.

C-terminus of Cav2.3 = assay: Co-immunoprecipitation assay in HEK cells, Cav2.3 C-terminus; format: binding; conditions: tagged proteins co-expressed in HEK cells; listed as WT
Method: as §1, §2

C-terminus of Cav2.1 = assay: Co-immunoprecipitation assay in HEK cells, Cav2.1 C-terminus; format: binding; conditions: tagged proteins co-expressed in HEK cells
Method: as §1, §2

PQ type VDCC (Cav2.1) = target: T2, PQ type VDCC (Cav2.1) (Oryctolagus cuniculus, UniProt P27884); assay: Patch-clamp analyses of HEK cell line with P/Q type VDCCs and wild type EFHC1 or mutant constructs; format: cell-based
T2 construct: expressed in transfected cells; host or cells: HEK cell line
T2 sequence (P27884 whole entry): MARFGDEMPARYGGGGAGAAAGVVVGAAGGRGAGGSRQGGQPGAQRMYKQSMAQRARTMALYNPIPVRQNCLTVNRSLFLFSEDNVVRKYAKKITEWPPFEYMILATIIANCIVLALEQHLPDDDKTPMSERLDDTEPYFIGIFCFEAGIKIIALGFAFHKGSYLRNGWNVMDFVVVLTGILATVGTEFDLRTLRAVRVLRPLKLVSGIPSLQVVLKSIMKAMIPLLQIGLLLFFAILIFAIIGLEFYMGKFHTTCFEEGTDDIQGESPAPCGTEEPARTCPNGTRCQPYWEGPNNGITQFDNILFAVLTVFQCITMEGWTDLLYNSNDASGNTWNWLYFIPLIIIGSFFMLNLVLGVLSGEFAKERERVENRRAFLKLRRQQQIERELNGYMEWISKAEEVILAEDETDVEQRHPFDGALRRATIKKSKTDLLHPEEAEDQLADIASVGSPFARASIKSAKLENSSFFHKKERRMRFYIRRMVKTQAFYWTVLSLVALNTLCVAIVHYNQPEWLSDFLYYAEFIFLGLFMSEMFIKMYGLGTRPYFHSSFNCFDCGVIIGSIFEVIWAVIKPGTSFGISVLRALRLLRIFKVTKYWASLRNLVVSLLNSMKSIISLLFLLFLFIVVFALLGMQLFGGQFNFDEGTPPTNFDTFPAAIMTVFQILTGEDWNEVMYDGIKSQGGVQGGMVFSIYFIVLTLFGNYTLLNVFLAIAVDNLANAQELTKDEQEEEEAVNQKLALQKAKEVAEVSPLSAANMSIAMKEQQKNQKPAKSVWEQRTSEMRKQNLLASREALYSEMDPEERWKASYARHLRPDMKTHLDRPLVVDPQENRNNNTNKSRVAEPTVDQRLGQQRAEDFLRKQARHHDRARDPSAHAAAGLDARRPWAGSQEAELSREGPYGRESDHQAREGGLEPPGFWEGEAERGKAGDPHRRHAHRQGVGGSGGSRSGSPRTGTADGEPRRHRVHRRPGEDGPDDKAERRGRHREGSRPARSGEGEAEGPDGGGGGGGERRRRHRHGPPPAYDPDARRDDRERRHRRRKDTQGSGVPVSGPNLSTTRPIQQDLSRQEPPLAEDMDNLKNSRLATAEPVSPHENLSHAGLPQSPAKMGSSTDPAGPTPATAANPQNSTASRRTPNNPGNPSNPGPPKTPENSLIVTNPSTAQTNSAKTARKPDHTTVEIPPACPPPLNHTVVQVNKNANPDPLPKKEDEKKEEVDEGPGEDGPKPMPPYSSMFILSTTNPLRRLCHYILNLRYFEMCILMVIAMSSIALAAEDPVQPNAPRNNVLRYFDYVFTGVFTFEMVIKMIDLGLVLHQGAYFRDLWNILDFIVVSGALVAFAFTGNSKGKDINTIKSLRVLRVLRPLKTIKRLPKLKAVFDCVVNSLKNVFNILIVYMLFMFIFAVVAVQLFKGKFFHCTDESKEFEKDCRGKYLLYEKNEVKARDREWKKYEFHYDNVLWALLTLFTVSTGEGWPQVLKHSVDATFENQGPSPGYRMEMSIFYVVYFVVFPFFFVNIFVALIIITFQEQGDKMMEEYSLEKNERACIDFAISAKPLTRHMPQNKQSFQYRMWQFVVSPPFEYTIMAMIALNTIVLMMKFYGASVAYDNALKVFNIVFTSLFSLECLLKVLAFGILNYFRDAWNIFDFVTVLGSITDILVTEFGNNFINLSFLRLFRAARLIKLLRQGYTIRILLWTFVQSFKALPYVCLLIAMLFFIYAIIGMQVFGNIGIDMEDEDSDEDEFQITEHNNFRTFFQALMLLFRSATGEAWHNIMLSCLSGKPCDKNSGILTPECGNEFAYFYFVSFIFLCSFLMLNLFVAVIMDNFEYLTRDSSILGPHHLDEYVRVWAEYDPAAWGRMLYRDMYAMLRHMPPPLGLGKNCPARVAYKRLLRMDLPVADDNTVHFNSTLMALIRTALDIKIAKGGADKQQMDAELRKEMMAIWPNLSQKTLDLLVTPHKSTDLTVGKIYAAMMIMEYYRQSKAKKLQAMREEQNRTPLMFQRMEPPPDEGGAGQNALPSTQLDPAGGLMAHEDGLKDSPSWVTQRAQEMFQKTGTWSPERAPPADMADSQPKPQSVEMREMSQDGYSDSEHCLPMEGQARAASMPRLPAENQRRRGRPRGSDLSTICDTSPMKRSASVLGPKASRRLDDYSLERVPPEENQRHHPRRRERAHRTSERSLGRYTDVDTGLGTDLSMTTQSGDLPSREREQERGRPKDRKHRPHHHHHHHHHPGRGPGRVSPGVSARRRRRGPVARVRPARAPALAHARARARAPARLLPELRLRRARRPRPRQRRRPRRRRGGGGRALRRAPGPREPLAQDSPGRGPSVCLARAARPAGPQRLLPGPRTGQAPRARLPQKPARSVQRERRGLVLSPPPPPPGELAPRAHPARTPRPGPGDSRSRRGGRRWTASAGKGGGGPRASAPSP
T2 sequence (P13806 27-1106 partner): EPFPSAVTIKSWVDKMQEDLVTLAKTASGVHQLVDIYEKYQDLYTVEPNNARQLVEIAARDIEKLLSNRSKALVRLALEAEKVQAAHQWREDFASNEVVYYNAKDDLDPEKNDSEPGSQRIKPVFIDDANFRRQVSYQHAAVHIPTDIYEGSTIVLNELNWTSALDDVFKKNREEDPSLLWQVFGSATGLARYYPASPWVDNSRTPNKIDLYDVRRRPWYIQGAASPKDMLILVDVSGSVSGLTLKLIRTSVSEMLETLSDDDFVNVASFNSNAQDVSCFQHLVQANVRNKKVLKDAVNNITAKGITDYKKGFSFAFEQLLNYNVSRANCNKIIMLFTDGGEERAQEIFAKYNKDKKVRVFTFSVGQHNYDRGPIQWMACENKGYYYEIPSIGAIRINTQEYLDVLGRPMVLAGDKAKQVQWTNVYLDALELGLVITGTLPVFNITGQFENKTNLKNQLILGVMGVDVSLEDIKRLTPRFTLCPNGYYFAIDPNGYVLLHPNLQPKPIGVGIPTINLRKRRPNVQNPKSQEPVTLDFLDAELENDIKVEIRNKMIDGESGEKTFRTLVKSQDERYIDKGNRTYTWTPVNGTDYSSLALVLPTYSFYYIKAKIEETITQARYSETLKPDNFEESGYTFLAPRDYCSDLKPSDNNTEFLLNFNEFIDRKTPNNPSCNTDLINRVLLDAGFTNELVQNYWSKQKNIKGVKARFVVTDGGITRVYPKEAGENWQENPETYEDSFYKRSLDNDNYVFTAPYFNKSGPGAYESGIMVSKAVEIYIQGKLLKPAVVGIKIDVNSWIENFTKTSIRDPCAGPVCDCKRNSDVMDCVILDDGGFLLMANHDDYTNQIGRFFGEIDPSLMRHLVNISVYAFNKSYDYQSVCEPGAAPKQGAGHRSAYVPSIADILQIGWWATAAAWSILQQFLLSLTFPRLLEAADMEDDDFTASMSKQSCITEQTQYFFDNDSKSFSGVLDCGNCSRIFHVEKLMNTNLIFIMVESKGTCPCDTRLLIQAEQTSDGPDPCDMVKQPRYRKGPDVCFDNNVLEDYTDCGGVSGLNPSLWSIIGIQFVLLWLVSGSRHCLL
T2 sequence (P19517 whole entry partner): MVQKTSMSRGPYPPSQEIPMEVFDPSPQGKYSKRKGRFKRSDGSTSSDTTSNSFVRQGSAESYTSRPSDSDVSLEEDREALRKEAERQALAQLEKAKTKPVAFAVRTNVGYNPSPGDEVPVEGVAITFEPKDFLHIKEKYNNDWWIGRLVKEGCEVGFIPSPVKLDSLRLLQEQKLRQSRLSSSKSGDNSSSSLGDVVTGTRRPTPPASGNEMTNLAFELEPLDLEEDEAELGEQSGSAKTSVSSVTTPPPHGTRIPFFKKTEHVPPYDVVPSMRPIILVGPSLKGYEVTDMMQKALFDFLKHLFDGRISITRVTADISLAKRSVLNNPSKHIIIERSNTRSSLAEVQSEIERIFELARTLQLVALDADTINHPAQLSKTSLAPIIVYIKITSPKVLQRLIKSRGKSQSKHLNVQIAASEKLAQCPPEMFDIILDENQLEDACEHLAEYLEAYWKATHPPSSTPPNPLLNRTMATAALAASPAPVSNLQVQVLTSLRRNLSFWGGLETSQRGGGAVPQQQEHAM

B1: EFHC1: myoclonin 1, a 640 amino acid protein with an EF-hand motif encoded by EFHC1 transcript A (SEQ ID NO: 4) (protein, listed as Homo sapiens)
chain: MVSNPVHGLPFLPGTSFKDSTKTAFHRSQTLSYRNGYAIVRRPTVGIGGDRLQFNQLSQAELDELASKAPVLTYGQPKQAPPADFIPAHVAFDKKVLKFDAYFQEDVPMSTEEQYRIRQVNIYYYLEDDSMSVIEPVVENSGILQGKLIKRQRLAKNDRGDHYHWKDLNRGINITIYGKTFRVVDCDQFTQVFLESQGIELNPPEKMALDPYTELRKQPLRKYVTPSDFDQLKQFLTFDKQVLRFYAIWDDTDSMYGECRTYIIHYYLMDDTVEIREVHERNDGRDPFPLLMNRQRVPKVLVENAKNFPQCVLEISDQEVLEWYTAKDFIVGKSLTILGRTFFIYDCDPFTRRYYKEKFGITDLPRIDVSKREPPPVKQELPPYNGFGLVEDSAQNCFTLIPKAPKKDVIKMLVNDNKVLRYLAVLESPIPEDKDRRFVFSYFLATDMISIFEPPVRNSGIIGGKYLGRTKVVKPYSTVDNPVYYGPSDFFIGAVIEVFGHRFIILDTDEYVLKYMESNAAQYSPEALASIQNHVRKREAPAPEAESKQTEKDPGVQELEALIDTIQKQLKDHSCKDNIREAFQIYDKEASGYVDRDMFFKICESLNVPVDDSLVKELIRMCSHGEGKINYYNFVRAFSN
C-terminus of Cav2.2
  co-immunoprecipitation with Cav2.2 C-terminus: did not
[1]; 16 hours post-transfection
  neuronal morphology: shorter neurites and lesser branches; also recorded: shorter neurites and fewer branches
[1]; 16 hours post-transfection, listed as GFP-EFHC1
  neuronal morphology: shorter neurites and less branches
[1]; 48 hours after transfection
  apoptosis (TUNEL) on EFHC1 overexpression: induced apoptosis; also recorded: overlap with TUNEL positive cells
[1]; 48 hours post-transfection
  neuronal morphology: signs of neurodegeneration and cell death; also recorded: neurodegeneratve morphologies
[1]; 48 hours post-transfection, listed as GFP-EFHC1
  neuronal morphology: signs of neurodegeneration and cell death
R-type VDCC (Cav2.3)
  R-type Ca2+ current generated by Cav2.3: specifically increased; also recorded: significantly increased
R-type VDCC (Cav2.3); listed as WT EFHC1
  R-type Ca2+ current generated by Cav2.3: significantly up-regulates
Bid
  Bid activation: activated Bid in a number of EFHC1-expressing neurons
C-terminus of Cav2.3
  co-immunoprecipitation with Cav2.3 C-terminus: co-immunoprecipitated
C-terminus of Cav2.1
  co-immunoprecipitation with Cav2.1 C-terminus: did not
PQ type VDCC (Cav2.1); cells co-transfected with P/Q-type VDCC and EFHC1 constructs
  Ca2+ current density of P/Q-type VDCC (Cav2.1): did not show such increase; also recorded: did not significantly affect
PQ type VDCC (Cav2.1); half-maximal voltage of activation, mean ± SEM
  Activation V0.5 (mV): 23.9 ± 1.0 mV
PQ type VDCC (Cav2.1); half-maximal voltage of inactivation, mean ± SEM
  Inactivation V0.5 (mV): −8.0 ± 0.8 mV
PQ type VDCC (Cav2.1); patch-clamp
  inactivation speed of P/Q type VDCC (decelerating effect on calcium inactivation): significantly decelerated
  voltage dependence of activation: did not significantly affect
  voltage dependence of inactivation: toward positive potentials
PQ type VDCC (Cav2.1); slope factor, mean ± SEM
  Activation k (mV): 8.63 ± 0.35 mV
  Inactivation K (mV): 6.73 ± 0.15 mV
